# B1: DSG2(50-602)-6xHis: fusion polypeptide of DSG2 amino acids 50-602 of SEQ ID NO: 1 (complete extracellular domain) to a hexahistidine peptide tag (protein, listed as Homo sapiens)
# chain: AWITAPVALREGEDLSKKNPIAKIHSDLAEERGLKITYKYTGKGITEPPFGIFVFNKDTGELNVTSILDREETPFFLLTGYALDARGNNVEKPLELRIKVLDINDNEPVFTQDVFVGSVEELSAAHTLVMKINATDADEPNTLNSKISYRIVSLEPAYPPVFYLNKDTGEIYTTSVTLDREEHSSYTLTVEARDGNGEVTDKPVKQAQVQIRILDVNDNIPVVENKVLEGMVEENQVNVEVTRIKVFDADEIGSDNWLANFTFASGNEGGYFHIETDAQTNEGIVTLIKEVDYEEMKNLDFSVIVANKAAFHKSIRSKYKPTPIPIKVKVKNVKEGIHFKSSVISIYVSESMDRSSKGQIIGNFQAFDEDTGLPAHARYVKLEDRDNWISVDSVTSEIKLAKLPDFESRYVQNGTYTVKIVAISEDYPRKTITGTVLINVEDINDNCPTLIEPVQTICHDAEYVNVTAEDLDGHPNSGPFSFSVIDKPPGMAEKWKIARQESTSVLLQQSEKKLGRSEIQFLISDNQGFSCPEKQVLTLTVCECLHGSGCREA
# modifications: C-terminal hexahistidine tag
# B2: EA(491-602)-6xHis: fusion of DSG2 amino acids 491-602 of SEQ ID NO: 1 (EA) to a hexahistidine peptide tag (protein, listed as Homo sapiens)
# chain: DINDNCPTLIEPVQTICHDAEYVNVTAEDLDGHPNSGPFSFSVIDKPPGMAEKWKIARQESTSVLLQQSEKKLGRSEIQFLISDNQGFSCPEKQVLTLTVCECLHGSGCREA
# modifications: C-terminal 6xHis tag
# How the values were obtained:
# Anti-DSG2 antibody [1] = experiment: anti-DSG2 antibody MSD assay; inhibition of the signal of anti-DSG2 antibody at 1000 ng/mL (control)
# Anti-DSG2 antibody [2] = experiment: anti-DSG2 antibody MSD assay; inhibition of the signal of anti-DSG2 antibody at 200 ng/mL (control)
# [3] = test system: human iPSC cardiomyocytes; experiment: iPSC-derived cardiomyocyte MEA assay, cell index; type: cell-based; conditions: antibodies 0.00005 to 5 μg/mL; lidocaine 3 to 100 μM
# Description: (§1) To determine the effect of anti-DSG2 antibodies in cardiomyocytes, the cardiac in vitro proarrhythmia (CiPA) assay was performed (Sager et al. Am Heart J 2014; 167:292-300; the contents of which are herein incorporated by reference in its entirety). CiPA is envisioned to consist of four components: (1) an evaluation of the effects of test agents on cardiac ion channel assays; (2) in silico modeling of the cardiac action potential based on the ion channel results to integrate the data with cardiac function; (3) experimental measurement of test agent effects in human ventricular myocytes to confirm the modeling result; and (4) scoring the results. The multielectrode array (MEA) assay is a component of CiPA which uses human induced pluripotent stem cell (iPSC)-derived cardiomyocytes to evaluate two-dimensional excitation propagation by recording spontaneous ECG-like field potentials. The sodium spike quantified below is a measurement of the specific sodium channel current in the cardiomyocyte and is also described in Blinova K, et al. Cell Rep. 2018 Sep. 25; 24(13):3582-3592 (the contents of which are herein incorporated by reference in its entirety). […] The parameters evaluated include measuring a change in the spike in the component of electrical signal propagation (e.g. sodium spike) and cell index—a function of cell impedance and cell number. […]
# [4] = test system: human iPSC cardiomyocytes; experiment: CiPA multielectrode array (MEA) assay, cardiomyocyte sodium spike; type: cell-based; conditions: voltage (μV) at 0-96 hours; antibodies/IgG 0.5 μg/mL; lidocaine 10 μM; FIG. 5
# Description: as §1, with “The multielectrode array (MEA) assay is a component of CiPA which uses human induced pluripotent stem cell (iPSC)-derived cardiomyocytes to evaluate two-dimensional excitation propagation by recording spontaneous ECG-like field potentials.” left out, “Rep.” for “Rep. 2018 Sep. 25; 24(13):3582-3592 (the contents of which are herein incorporated by reference in its entirety).”
# Commercially available anti-DSG2 antibodies were tested in the cardiomyocyte CiPA assay. […] The voltage (μV) is measured at time intervals of 0, 1 hour, 12 hours, 24 hours, 48 hours, 72 hours, and 96 hours. […]
# [5] = test system: anti-DSG2 antibodies in sera of post-COVID-19 patients; experiment: Electrochemical immunoassay: blocking of post-COVID-19 patient sera binding to the DSG2 extracellular domain; design: species or system human; conditions: fusion polypeptide 10 μg/mL, post-COVID-19 patient sera 10% (v/v), FIG. 3
# Description: DSG2 fusion polypeptides were investigated for the ability to block the binding of anti-DSG2 antibodies in sera of post-COVID-19 patients to the DSG2 extracellular domain in an electrochemical immunoassay. The fusion polypeptides were added to a final concentration of 10 μg/mL and patient sera were used at a final concentration of 10% (v/v). The results are shown in the series of bar charts in FIG. 3, where the numbers 001, 002, 003, 004, 005 and 006 indicate individual post-COVID-19 patient serum samples.
# In FIG. 3, the first data series from the left is for DSG2FP #1 (described above as amino acids 49-608 of SEQ ID NO:30; Linker (IEGRMD (SEQ ID NO: 28)); amino acids 100-330 of IgG1 (SEQ ID NO: 4). The second data series from the left is for DSG2(50-602)-6xHis, which is a fusion polypeptide of DSG2 amino acids 50-602 of SEQ ID NO: 1 (complete extracellular domain) to a hexahistidine peptide tag. The third data series from the left is for a combination of fusion polypeptides which includes EC1(50-155)-6xHis, a fusion of DSG2 amino acids 50-155 of SEQ ID NO: 1 (EC1) to a hexahistidine peptide tag and EC2(151-268)-6xHis, a fusion of DSG2 amino acids 151-268 of SEQ ID NO: 1 (EC2) to a hexahistidine peptide tag. The fourth data series from the left is for EA(491-602)-6xHis, a fusion of DSG2 amino acids 491-602 of SEQ ID NO: 1 (EA) to a hexahistidine peptide tag. […]
molecule,measurement,setting,value
"recombinant human desmoglein-2 Fc chimera protein, CF (R&D Systems) (Fc fusion)",% inhibition,Anti-DSG2 antibody [1],88.4%
same,% inhibition,Anti-DSG2 antibody [2],63.8%
"CCN(CC)CC(=O)Nc1c(C)cccc1C [Lidocaine, lidocaine]",effect on cell index (in words),[3],marked reduction in cell index and likely cell death
same,effect on cardiomyocyte sodium spike,[4],dampen the sodium spike
B1,blocking activity (% inhibition),[5]; 100% inhibition = complete blocking,at least 70%
B2,blocking activity (in words),[5],some effectiveness in blocking activity

# — patent US20240043495A1, “DSG2 COMPOSITIONS AND METHODS FOR THE TREATMENT OF COVID-19” (priority 2020, published 2024)
